Results reported in PMC4027167, “The histone chaperones Vps75 and Nap1 form ring-like, tetrameric structures in solution” (Nucleic Acids Research, 2014).

How the values were obtained:
[1] = target: Vps75 lacking the unstructured C-terminal domain (residues 1–223) (budding yeast) (UniProt P53853); assay: SEC-MALS; 500 mM NaCl, 20 mM HEPES-KOH pH 7.5; MAbPac SEC-1 column (Figure 1) or Superdex S200 10/300 (Figure 7)
[2] = target: Vps75 lacking the unstructured C-terminal domain (residues 1–223) (budding yeast) (UniProt P53853); assay: SEC-MALS; 150 mM NaCl, 20 mM HEPES-KOH pH 7.5; MAbPac SEC-1 column (Figure 1) or Superdex S200 10/300 (Figures 5 and 7)
[3] = target: Vps75 lacking the unstructured C-terminal domain (residues 1–223) (budding yeast) (UniProt P53853); assay: SAXS; 500 mM NaCl, 0.5 to 10 mg/ml, 10°C
[4] = target: Vps75, full-length (budding yeast) (UniProt P53853); assay: SEC-MALS; 500 mM NaCl, 20 mM HEPES-KOH pH 7.5; MAbPac SEC-1 column (Figure 1) or Superdex S200 10/300 (Figure 7)
[5] = target: Vps75, full-length (budding yeast) (UniProt P53853); assay: SEC-MALS; 150 mM NaCl, 20 mM HEPES-KOH pH 7.5; MAbPac SEC-1 column (Figure 1) or Superdex S200 10/300 (Figures 5 and 7)
[6] = target: Vps75, full-length (budding yeast) (UniProt P53853); assay: SAXS; 150 mM NaCl, 0.5 to 10 mg/ml, 10°C
[7] = target: Vps75, full-length (budding yeast) (UniProt P53853); assay: SAXS; 500 mM NaCl, 0.5 to 10 mg/ml, 10°C
[8] = target: Vps75 Y35C dimers labelled with Maleimide-PEG2-Biotin (budding yeast) (UniProt P53853); assay: BLI; biotinylated chaperone dimers on streptavidin biosensors, unlabelled wild-type chaperone in solution; 150 mM NaCl, 20 mM HEPES.KOH pH 7.5, 0.1% BSA; steady state, one site saturation fit; two dimers to tetramer
[9] = target: Nucleosome Assembly Protein 1 (Nap1) (budding yeast) (UniProt P25293); assay: SEC-MALS; 500 mM NaCl, 20 mM HEPES-KOH pH 7.5; MAbPac SEC-1 column (Figure 1) or Superdex S200 10/300 (Figure 7)
[10] = target: Nucleosome Assembly Protein 1 (Nap1) (budding yeast) (UniProt P25293); assay: SEC-MALS; 150 mM NaCl, 20 mM HEPES-KOH pH 7.5; MAbPac SEC-1 column (Figure 1) or Superdex S200 10/300 (Figures 5 and 7)
[11] = target: Nap1 L120C dimers labelled with Maleimide-PEG2-Biotin (budding yeast) (UniProt P25293); assay: BLI; biotinylated chaperone dimers on streptavidin biosensors, unlabelled wild-type chaperone in solution; 150 mM NaCl, 20 mM HEPES.KOH pH 7.5, 0.1% BSA; steady state, one site saturation fit; two dimers to tetramer
[12] = target: the molecule itself; assay: SEC-MALS; 150 mM NaCl, 20 mM HEPES-KOH pH 7.5; MAbPac SEC-1 column (Figure 1) or Superdex S200 10/300 (Figures 5 and 7)
[13] = target: the molecule itself; assay: PELDOR; spin-labelled protein, 100–150 μM dimer, 150 mM NaCl, 20 mM HEPES-KOH pH 7.5 in deuterium oxide, mixed 1:1 with D8-glycerol; tetrameric conditions
[14] = target: the molecule itself; assay: PELDOR; spin-labelled protein, 100–150 μM dimer, 500 mM NaCl, 20 mM HEPES-KOH pH 7.5 in deuterium oxide, mixed 1:1 with D8-glycerol; dimeric conditions
[15] = target: the molecule itself; assay: SEC-MALS; run at 500 mM NaCl after disulphide cross-linking via K78C at 150 mM NaCl

Molecule: Vps75 lacking the unstructured C-terminal domain (residues 1–223) (from UniProt P53853 1-223) (domain or fragment)
- stoichiometry N [1]: 2
- stoichiometry N [2]: 4
- stoichiometry N [3]: 2

Molecule: Vps75, full-length (from UniProt P53853 1-264) (natural protein)
- stoichiometry N [4]: 2
- stoichiometry N [5]: 4
- stoichiometry N [6]: 4
- stoichiometry N [7]: 2
- Kd [8]: 600 nM

Molecule: Nucleosome Assembly Protein 1 (Nap1) (from UniProt P25293 1-417) (natural protein)
- stoichiometry N [9]: 2
- stoichiometry N [10]: 4
- Kd [11]: 3570 nM

B1: Nap1 PPP mutant (R301P, T302P, K305P) (natural protein)
chain: MSDPIRTKPKSSMQIDNAPTPHNTPASVLNPSYLKNGNPVRAQAQEQDDKIGTINEEDILANQPLLLQSIQDRLGSLVGQDSGYVGGLPKNVKEKLLSLKTLQSELFEVEKEFQVEMFELENKFLQKYKPIWEQRSRIISGQEQPKPEQIAKGQEIVESLNETELLVDEEEKAQNDSEEEQVKGIPSFWLTALENLPIVADTITDRDAEVLEYLQDIGLEYLTDGRPGFKLLFRFDSSANPFFTNDILAKTYFYQKELGYSGDFIYDHAEGAEISWKDNAHNVTVDLEMRKQRNKTTKQVPPIEPITPIESFFNFFDPPKIQNEDQDEELEEDLEERLALDYSIGEQLKDKLIPRAVDWFTGAALEFEFEEDEEEADEDEDEEEDDDHGLEDDDGESAEEQDDFAGRPEQAPEAKQS
- stoichiometry N [12]: ~2

B2: Nap1 T251R1 (natural protein, budding yeast, UniProt P25293 1-417, looked up)
chain: MSDPIRTKPKSSMQIDNAPTPHNTPASVLNPSYLKNGNPVRAQAQEQDDKIGTINEEDILANQPLLLQSIQDRLGSLVGQDSGYVGGLPKNVKEKLLSLKTLQSELFEVEKEFQVEMFELENKFLQKYKPIWEQRSRIISGQEQPKPEQIAKGQEIVESLNETELLVDEEEKAQNDSEEEQVKGIPSFWLTALENLPIVADTITDRDAEVLEYLQDIGLEYLTDGRPGFKLLFRFDSSANPFFTNDILAKCYFYQKELGYSGDFIYDHAEGAEISWKDNAHNVTVDLEMRKQRNKTTKQVRTIEKITPIESFFNFFDPPKIQNEDQDEELEEDLEERLALDYSIGEQLKDKLIPRAVDWFTGAALEFEFEEDEEEADEDEDEEEDDDHGLEDDDGESAEEQDDFAGRPEQAPEAKQS
modifications: MTSL spin label (R1) on cysteine 251; deuterated protein
notes: Nap1 of budding yeast, open reading frame, unique cysteine at position 251; also called Nap1 T251C; not shown: His6, N-terminal, cleaved
- stoichiometry N [13]: 4
- stoichiometry N [14]: 2

B3: Nap1 E209R1 (natural protein, budding yeast, UniProt P25293 1-417, looked up)
chain: MSDPIRTKPKSSMQIDNAPTPHNTPASVLNPSYLKNGNPVRAQAQEQDDKIGTINEEDILANQPLLLQSIQDRLGSLVGQDSGYVGGLPKNVKEKLLSLKTLQSELFEVEKEFQVEMFELENKFLQKYKPIWEQRSRIISGQEQPKPEQIAKGQEIVESLNETELLVDEEEKAQNDSEEEQVKGIPSFWLTALENLPIVADTITDRDACVLEYLQDIGLEYLTDGRPGFKLLFRFDSSANPFFTNDILAKTYFYQKELGYSGDFIYDHAEGAEISWKDNAHNVTVDLEMRKQRNKTTKQVRTIEKITPIESFFNFFDPPKIQNEDQDEELEEDLEERLALDYSIGEQLKDKLIPRAVDWFTGAALEFEFEEDEEEADEDEDEEEDDDHGLEDDDGESAEEQDDFAGRPEQAPEAKQS
modifications: MTSL spin label (R1) on cysteine 209; deuterated protein
notes: Nap1 of budding yeast, open reading frame, unique cysteine at position 209; also called Nap1 E209C; not shown: His6, N-terminal, cleaved
- stoichiometry N [13]: 4
- stoichiometry N [14]: 2

B4: Nap1 T307R1 (natural protein, budding yeast, UniProt P25293 1-417, looked up)
chain: MSDPIRTKPKSSMQIDNAPTPHNTPASVLNPSYLKNGNPVRAQAQEQDDKIGTINEEDILANQPLLLQSIQDRLGSLVGQDSGYVGGLPKNVKEKLLSLKTLQSELFEVEKEFQVEMFELENKFLQKYKPIWEQRSRIISGQEQPKPEQIAKGQEIVESLNETELLVDEEEKAQNDSEEEQVKGIPSFWLTALENLPIVADTITDRDAEVLEYLQDIGLEYLTDGRPGFKLLFRFDSSANPFFTNDILAKTYFYQKELGYSGDFIYDHAEGAEISWKDNAHNVTVDLEMRKQRNKTTKQVRTIEKICPIESFFNFFDPPKIQNEDQDEELEEDLEERLALDYSIGEQLKDKLIPRAVDWFTGAALEFEFEEDEEEADEDEDEEEDDDHGLEDDDGESAEEQDDFAGRPEQAPEAKQS
modifications: MTSL spin label (R1) on cysteine 307; deuterated protein
notes: Nap1 of budding yeast, open reading frame, unique cysteine at position 307; also called Nap1 T307C; not shown: His6, N-terminal, cleaved
- stoichiometry N [13]: 4
- stoichiometry N [14]: 2

B5: Vps75 K117R1 (natural protein, budding yeast, UniProt P53853 1-264, looked up)
chain: MMSDQENENEHAKAFLGLAKAEEEVDAIEREVELYRLNKMKPVYEKRDAYIDEIAEFWKIVLSQHVSFANYIRASDFKYIDTIDKIKVEWLALESEMYDTRDFSITFHFHGIEGDFCEQQVTKVFQIKKGKDDQEDGILTSEPVPIEWPQSYDSINPDLIKDKRSPEGKKKYRQGMKTIFGWFRWTGLKPGKEFPHGDSLASLFSEEIYPFAVKYYAEAQRDLEDEEGESGLSADGDSEDDDGSLGEVDLPLSDEEPSSKKRKV
modifications: MTSL spin label (R1) on cysteine 117; deuterated protein
notes: Vps75 of budding yeast, open reading frame, unique cysteine at position 117; also called Vps75 K117C; not shown: His6, N-terminal, cleaved
- stoichiometry N [13]: 4

B6: Vps75 R164D (natural protein, budding yeast, UniProt P53853 1-264, looked up)
chain: MMSDQENENEHAKAFLGLAKAEEEVDAIEREVELYRLNKMKPVYEKRDAYIDEIAEFWKIVLSQHVSFANYIRASDFKYIDTIDKIKVEWLALESEMYDTRDFSITFHFHGIEGDFKEQQVTKVFQIKKGKDDQEDGILTSEPVPIEWPQSYDSINPDLIKDKDSPEGKKKYRQGMKTIFGWFRWTGLKPGKEFPHGDSLASLFSEEIYPFAVKYYAEAQRDLEDEEGESGLSADGDSEDDDGSLGEVDLPLSDEEPSSKKRKV
notes: Vps75 of budding yeast, point mutant in the C21A/C212A construct
- stoichiometry N [12]: ~2

B7: Vps75 K78C (natural protein, budding yeast, UniProt P53853 1-264, looked up)
chain: MMSDQENENEHAKAFLGLAKAEEEVDAIEREVELYRLNKMKPVYEKRDAYIDEIAEFWKIVLSQHVSFANYIRASDFCYIDTIDKIKVEWLALESEMYDTRDFSITFHFHGIEGDFKEQQVTKVFQIKKGKDDQEDGILTSEPVPIEWPQSYDSINPDLIKDKRSPEGKKKYRQGMKTIFGWFRWTGLKPGKEFPHGDSLASLFSEEIYPFAVKYYAEAQRDLEDEEGESGLSADGDSEDDDGSLGEVDLPLSDEEPSSKKRKV
modifications: disulphide between cysteine 78 of opposing dimers after oxidation with Cu (II) phenanthroline
notes: as for B6
- stoichiometry N [15]: 4

B8: Vps75 E56R1 (natural protein, budding yeast, UniProt P53853 1-264, looked up)
chain: MMSDQENENEHAKAFLGLAKAEEEVDAIEREVELYRLNKMKPVYEKRDAYIDEIACFWKIVLSQHVSFANYIRASDFKYIDTIDKIKVEWLALESEMYDTRDFSITFHFHGIEGDFKEQQVTKVFQIKKGKDDQEDGILTSEPVPIEWPQSYDSINPDLIKDKRSPEGKKKYRQGMKTIFGWFRWTGLKPGKEFPHGDSLASLFSEEIYPFAVKYYAEAQRDLEDEEGESGLSADGDSEDDDGSLGEVDLPLSDEEPSSKKRKV
modifications: MTSL spin label (R1) on cysteine 56; deuterated protein
notes: Vps75 of budding yeast, open reading frame, unique cysteine at position 56; also called Vps75 E56C; not shown: His6, N-terminal, cleaved
- stoichiometry N [13]: 4

B9: Vps75 triple mutant protein (R164D, K169E, K170E) (natural protein, budding yeast, UniProt P53853 1-264, looked up)
chain: MMSDQENENEHAKAFLGLAKAEEEVDAIEREVELYRLNKMKPVYEKRDAYIDEIAEFWKIVLSQHVSFANYIRASDFKYIDTIDKIKVEWLALESEMYDTRDFSITFHFHGIEGDFKEQQVTKVFQIKKGKDDQEDGILTSEPVPIEWPQSYDSINPDLIKDKDSPEGEEKYRQGMKTIFGWFRWTGLKPGKEFPHGDSLASLFSEEIYPFAVKYYAEAQRDLEDEEGESGLSADGDSEDDDGSLGEVDLPLSDEEPSSKKRKV
notes: Vps75 of budding yeast, mutant in the C21A/C212A construct
- stoichiometry N [12]: 2

B10: Vps75 K170E (natural protein, budding yeast, UniProt P53853 1-264, looked up)
chain: MMSDQENENEHAKAFLGLAKAEEEVDAIEREVELYRLNKMKPVYEKRDAYIDEIAEFWKIVLSQHVSFANYIRASDFKYIDTIDKIKVEWLALESEMYDTRDFSITFHFHGIEGDFKEQQVTKVFQIKKGKDDQEDGILTSEPVPIEWPQSYDSINPDLIKDKRSPEGKEKYRQGMKTIFGWFRWTGLKPGKEFPHGDSLASLFSEEIYPFAVKYYAEAQRDLEDEEGESGLSADGDSEDDDGSLGEVDLPLSDEEPSSKKRKV
notes: as for B6
- stoichiometry N [12]: ~2

B11: Vps75 K169E (natural protein, budding yeast, UniProt P53853 1-264, looked up)
chain: MMSDQENENEHAKAFLGLAKAEEEVDAIEREVELYRLNKMKPVYEKRDAYIDEIAEFWKIVLSQHVSFANYIRASDFKYIDTIDKIKVEWLALESEMYDTRDFSITFHFHGIEGDFKEQQVTKVFQIKKGKDDQEDGILTSEPVPIEWPQSYDSINPDLIKDKRSPEGEKKYRQGMKTIFGWFRWTGLKPGKEFPHGDSLASLFSEEIYPFAVKYYAEAQRDLEDEEGESGLSADGDSEDDDGSLGEVDLPLSDEEPSSKKRKV
notes: as for B6
- stoichiometry N [12]: ~2
